Experimental data from patent US20250043302A1, “MUTATED HYDROXYPHENYLPYRUVATE DIOXYGENASE POLYPEPTIDE, AND CODING GENE AND USE THEREOF” (BEIJING DABEINONG BIOTECHNOLOGY CO., LTD., priority 2021, published 2025).

What was measured:
Format in all cases: in vivo
[1] = tested on: Arabidopsis thaliana T1 plants; experiment: Mesotrione tolerance of transgenic Arabidopsis thaliana T1 plants (spray, bleached leaf area grade, damage score); parameters: Scores: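 damage score 0-100 computed as Σ(N×S)/(T×M)×100 over grades 0-3 with higher meaning more damage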; conditions: Table 9; for Classification and statistics of the grade of pesticide damage Grade 0: number of plants at grade 0; for Classification and statistics of the grade of pesticide damage Grade 1: number of plants at grade 1; for Classification and statistics of the grade of pesticide damage Grade 2: number of plants at grade 2; for Classification and statistics of the grade of pesticide damage Grade 3: number of plants at grade 3; for Scores: pesticide damage score
Outline: (§1)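 Damage graded 0–3 from the proportion of bleached leaf area 7 days after spraying. Plants were glufosinate-selected T1 lines, 18 days after sowing, plus vector and wild-type controls. Rates: mesotrione 52.5–420, isoxaflutole 35–280, topramezone 25–200 g ai/ha, with water (0×).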

[2] = tested on: Arabidopsis thaliana T1 plants; experiment: Topramezone tolerance of transgenic Arabidopsis thaliana T1 plants (spray, bleached leaf area grade, damage score); conditions: for Resistance evaluation / Scores / Grade 0 (classification and statistics of the grade of pesticide damage; number of plants) / Grade 1 (classification and statistics of the grade of pesticide damage; number of plants) / Grade 2 (classification and statistics of the grade of pesticide damage; number of plants) / Grade 3 (classification and statistics of the grade of pesticide damage; number of plants): Arabidopsis thaliana T1 plants; for Grade 0 (classification and statistics of the grade of pesticide damage; number of plants) / Grade 1 (classification and statistics of the grade of pesticide damage; number of plants) / Grade 2 (classification and statistics of the grade of pesticide damage; number of plants) / Grade 3 (classification and statistics of the grade of pesticide damage; number of plants): 16 plants
Outline: as §1

[3] = tested on: Arabidopsis thaliana T1 plants; experiment: Isoxaflutole tolerance of transgenic Arabidopsis thaliana T1 plants (spray, bleached leaf area grade, damage score); conditions: Arabidopsis thaliana T1 plants; for Grade 0 (classification and statistics of the grade of pesticide damage; number of plants) / Grade 1 (classification and statistics of the grade of pesticide damage; number of plants) / Grade 2 (classification and statistics of the grade of pesticide damage; number of plants) / Grade 3 (classification and statistics of the grade of pesticide damage; number of plants): 16 plants;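 for Scores: Weighted damage index from 0 to 100 where higher means more damage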
Outline: as §1

[4] = topramezone 100 g ai/ha (4x field concentration)
[5] = topramezone 200 g ai/ha (8x field concentration)
[6] = isoxaflutole 140 g ai/ha (2x field concentration)
[7] = isoxaflutole 280 g ai/ha (4x field concentration)

B1: AsHPPDm-F372V-F383W-02: nucleotide sequence encoding Avena sativa HPPD with F372V+F383W; vector DBN11777 (nucleic acid)
DNA: ATGCCACCTACTCCAGCTACAGCTACTGGTGCTGCTGCTGCTGCCGTTACTCCTGAGCACGCTGCCAGGTCATTCCCCAGGGTGGTTCGCGTGAACCCCAGATCTGATAGGTTCCCAGTTCTGAGCTTCCACCATGTTGAGCTGTGGTGCGCTGATGCTGCTTCTGCTGCTGGCAGGTTCTCTTTCGCTCTTGGTGCTCCACTCGCTGCTAGATCTGATCTGTCTACAGGAAATAGCGCTCATGCCTCACTCCTGCTTCGCTCAGGTGCTTTGGCCTTCCTCTTCACCGCTCCATATGCTCCCCCACCTCAGGAGGCTGCTACTGCTGCTGCTACAGCCTCCATTCCAAGCTTCTCAGCTGATGCCGCTAGAACCTTCGCTGCTGCTCATGGACTTGCCGTGAGGTCTGTTGGTGTTCGCGTGGCTGATGCTGCTGAGGCTTTCAGAGTTTCCGTTGCCGGCGGAGCTAGGCCAGCTTTCGCTCCTGCTGATTTGGGACATGGTTTCGGCCTGGCTGAGGTTGAGCTTTACGGTGACGTGGTTCTCCGCTTCGTGTCTTACCCAGATGAGACTGACCTGCCTTTCCTTCCCGGCTTCGAGAGAGTTTCCTCTCCTGGTGCCGTGGATTACGGCCTGACAAGGTTCGACCACGTGGTTGGAAACGTTCCCGAGATGGCTCCAGTGATCGATTACATGAAGGGCTTCCTTGGATTCCATGAGTTCGCCGAGTTCACTGCTGAGGACGTGGGAACCACTGAGTCCGGTTTGAACTCTGTGGTTCTCGCCAACAATTCTGAGGCTGTTTTGCTCCCTCTGAATGAGCCTGTGCATGGAACCAAGAGGAGAAGCCAGATTCAAACTTACCTGGAGTACCACGGTGGCCCTGGAGTTCAGCATATCGCCCTTGCTTCTAATGATGTGTTGCGCACACTCAGAGAGATGCGCGCCAGAACCCCCATGGGAGGTTTCGAGTTCATGGCCCCACCACAGGCTAAGTACTACGAGGGCGTTAGAAGGATTGCTGGAGACGTGTTGAGCGAGGAGCAGATCAAGGAGTGCCAAGAGCTGGGTGTTCTTGTGGATAGGGATGACCAGGGCGTTCTGCTTCAAATTGTCACTAAGCCAGTGGGCGACCGCCCTACATTCTGGCTTGAGATGATTCAAAGAATCGGCTGCATGGAGAAGGATGAGGTTGGACAGGAGTACCAAAAGGGCGGATGCGGTGGCTTCGGAAAGGGTAACTTCAGCGAGTTGTTCAAGTCAATCGAGGACTACGAGAAGAGCCTCGAGGTGAAGCAGTCAGTGGTTGCCCAAAAGTCCTGA
modifications: AsHPPDm-F372V-F383W-02 Nucleotide Sequence
notes: vector DBN11777
For B1, the Resistance evaluation ([1]; mesotrione 210 g ai/ha (2×)) was “Highly resistant”, the “Classification and statistics of the grade of pesticide damage Grade 0” value ([1]; mesotrione 210 g ai/ha (2×)) was 16 and the “Classification and statistics of the grade of pesticide damage Grade 1” value ([1]; mesotrione 210 g ai/ha (2×)) was 0. The “Classification and statistics of the grade of pesticide damage Grade 2” value ([1]; mesotrione 210 g ai/ha (2×)) was 0, the “Classification and statistics of the grade of pesticide damage Grade 3” value ([1]; mesotrione 210 g ai/ha (2×)) was 0 and the Scores ([1]; mesotrione 210 g ai/ha (2×)) was 0. The Resistance evaluation ([1]; mesotrione 420 g ai/ha (4×)) was “Highly resistant”, the “Classification and statistics of the grade of pesticide damage Grade 0” value ([1]; mesotrione 420 g ai/ha (4×)) was 15 and the “Classification and statistics of the grade of pesticide damage Grade 1” value ([1]; mesotrione 420 g ai/ha (4×)) was 1. For the same molecule, the “Classification and statistics of the grade of pesticide damage Grade 2” value ([1]; mesotrione 420 g ai/ha (4×)) was 0, the “Classification and statistics of the grade of pesticide damage Grade 3” value ([1]; mesotrione 420 g ai/ha (4×)) was 0 and the Scores ([1]; mesotrione 420 g ai/ha (4×)) was 2. The Resistance evaluation [2, 4] was “Highly resistant”, the Scores [2, 4] was 0 and the “Grade 0 (classification and statistics of the grade of pesticide damage; number of plants)” value [2, 4] was 16. The “Grade 1 (classification and statistics of the grade of pesticide damage; number of plants)” value [2, 4] was 0, the “Grade 2 (classification and statistics of the grade of pesticide damage; number of plants)” value [2, 4] was 0 and the “Grade 3 (classification and statistics of the grade of pesticide damage; number of plants)” value [2, 4] was 0. The Resistance evaluation [2, 5] was “Highly resistant”, the Scores [2, 5] was 0 and the “Grade 0 (classification and statistics of the grade of pesticide damage; number of plants)” value [2, 5] was 16. The “Grade 1 (classification and statistics of the grade of pesticide damage; number of plants)” value [2, 5] was 0, the “Grade 2 (classification and statistics of the grade of pesticide damage; number of plants)” value [2, 5] was 0 and the “Grade 3 (classification and statistics of the grade of pesticide damage; number of plants)” value [2, 5] was 0. The “tolerance to topramezone (resistance class)” value ([2]; topramezone at four-fold or eight-fold field concentration) was “highly-resistant”, the Resistance evaluation [3, 6] was “Highly resistant” and the Scores [3, 6] was 0. The “Grade 0 (classification and statistics of the grade of pesticide damage; number of plants)” value [3, 6] was 16, the “Grade 1 (classification and statistics of the grade of pesticide damage; number of plants)” value [3, 6] was 0 and the “Grade 2 (classification and statistics of the grade of pesticide damage; number of plants)” value [3, 6] was 0. For the same molecule, the “Grade 3 (classification and statistics of the grade of pesticide damage; number of plants)” value [3, 6] was 0, the Resistance evaluation [3, 7] was “Highly resistant” and the Scores [3, 7] was 10. For the same molecule, the “Grade 0 (classification and statistics of the grade of pesticide damage; number of plants)” value [3, 7] was 12, the “Grade 1 (classification and statistics of the grade of pesticide damage; number of plants)” value [3, 7] was 3 and the “Grade 2 (classification and statistics of the grade of pesticide damage; number of plants)” value [3, 7] was 1. For the same molecule, the “Grade 3 (classification and statistics of the grade of pesticide damage; number of plants)” value [3, 7] was 0.
